Paper PMC11782696, “Claudin-11 regulates immunological barrier formation and spermatogonial proliferation through stem cell factor” (Communications Biology, 2025)

Target: T1, MBP fusion protein of the PDZ1 domain (aa 19-113) of mouse ZO1 (mouse, UniProt P39447 19-113)
T1 construct: zonula occludens 1 (ZO1), mouse, PDZ1 domain, aa 19-113 of the 1,745-amino-acid protein; Expression vector provided by Masahiko Itoh; also called MBP-zPDZ1; PDZ1 of ZO1; source: E. coli DH5α, purified (amylose resin, eluted with 10 mM maltose)
T1 sequence (looked up): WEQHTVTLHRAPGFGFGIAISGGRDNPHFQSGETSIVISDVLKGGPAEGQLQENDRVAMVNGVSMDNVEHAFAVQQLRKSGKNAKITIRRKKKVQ
Test: pull-down; GST-fused proteins on Glutathione Sepharose 4B beads incubated with eluted MBP-fused proteins at 4 °C overnight in buffer A (50 mM Tris-HCl pH 8.0, 50 mM NaCl, 1 mM EDTA, 1 mM DTT); washed three times; SDS-PAGE and Coomassie Brilliant Blue staining
Conditions: both partners purified

B1: GST fusion protein of the C-terminal 29 amino acids of mouse CLDN11 (aa 179-207) (domain or fragment, UniProt Q60771 179-207, looked up)
chain: SGDAQSFGENRFYYSSGSSSPTHAKSAHV
notes: claudin-11 (CLDN11), mouse, C-terminal 29 amino acids, aa 179-207 of the 207-residue protein; also called GST-CL11; claudin-11 C-terminus
  binding result: binds
